T1: human Nectin-2 extracellular domain (amino acid residues 1-360 of human Nectin-2) fused to hFc (human, UniProt Q92692 32-360)
T1 construct: Bought; also called hNectin-2-ECD-hFc; NECTIN2-ECD-hFc; not shown: human Fc (hFc)
T1 sequence: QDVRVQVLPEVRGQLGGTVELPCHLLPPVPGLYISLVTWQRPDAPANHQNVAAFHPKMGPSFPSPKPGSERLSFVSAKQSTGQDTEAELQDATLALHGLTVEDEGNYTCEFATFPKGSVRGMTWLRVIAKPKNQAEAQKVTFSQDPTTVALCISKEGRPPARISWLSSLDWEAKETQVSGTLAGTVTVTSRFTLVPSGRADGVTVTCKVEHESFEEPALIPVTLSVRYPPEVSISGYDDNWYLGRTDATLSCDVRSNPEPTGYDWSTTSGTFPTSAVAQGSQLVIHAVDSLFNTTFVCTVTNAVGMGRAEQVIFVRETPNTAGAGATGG

T2: human Nectin-2 on the cell surface (U937 cells) (human, UniProt Q92692 32-538)
T2 construct: Endogenous Nectin-2 of U937 cells; also called PVRL2; CD112
T2 sequence: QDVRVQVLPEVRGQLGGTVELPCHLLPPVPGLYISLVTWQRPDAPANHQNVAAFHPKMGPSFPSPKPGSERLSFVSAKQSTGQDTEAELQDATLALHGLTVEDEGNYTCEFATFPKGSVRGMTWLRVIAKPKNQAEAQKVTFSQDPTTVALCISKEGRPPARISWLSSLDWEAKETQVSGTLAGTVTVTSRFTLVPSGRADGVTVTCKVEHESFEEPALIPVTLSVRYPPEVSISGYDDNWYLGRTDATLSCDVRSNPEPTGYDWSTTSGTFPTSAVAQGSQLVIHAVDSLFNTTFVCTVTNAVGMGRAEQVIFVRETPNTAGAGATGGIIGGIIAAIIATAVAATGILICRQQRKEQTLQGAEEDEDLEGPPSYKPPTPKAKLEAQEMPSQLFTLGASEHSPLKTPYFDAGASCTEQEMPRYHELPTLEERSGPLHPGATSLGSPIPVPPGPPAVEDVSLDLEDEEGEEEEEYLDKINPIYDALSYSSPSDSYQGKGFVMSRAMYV

T3: human CD105-ECD: amino acid residues Met 1-Gly 586 of human CD105 (Sino bio: Cat: 10149-H02H) (human, UniProt P17813 26-586)
T3 construct: Bought; also called hCD105-ECD-hFc; hCD105-hFc
T3 sequence: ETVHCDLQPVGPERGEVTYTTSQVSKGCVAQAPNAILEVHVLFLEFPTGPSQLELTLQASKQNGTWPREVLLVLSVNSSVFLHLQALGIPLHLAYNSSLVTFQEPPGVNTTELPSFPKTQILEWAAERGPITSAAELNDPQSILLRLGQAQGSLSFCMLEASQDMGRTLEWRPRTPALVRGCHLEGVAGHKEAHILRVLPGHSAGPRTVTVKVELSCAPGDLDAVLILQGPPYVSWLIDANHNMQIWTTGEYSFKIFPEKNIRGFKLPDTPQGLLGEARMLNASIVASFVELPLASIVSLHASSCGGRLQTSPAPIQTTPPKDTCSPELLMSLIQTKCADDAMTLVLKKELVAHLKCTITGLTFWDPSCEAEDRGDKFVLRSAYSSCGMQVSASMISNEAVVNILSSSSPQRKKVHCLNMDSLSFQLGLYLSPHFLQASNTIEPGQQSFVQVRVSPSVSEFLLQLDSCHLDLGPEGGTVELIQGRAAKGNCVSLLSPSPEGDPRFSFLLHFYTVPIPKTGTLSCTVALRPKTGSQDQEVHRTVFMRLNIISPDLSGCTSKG

T4: C-terminal domain (CTD) of human PTPRG (amino acid residues 349~736 of human PTPRG) (human, UniProt P23470 349-736)
T4 construct: also called hPTPRG-CTD; human PTPRG carboxyl domain
T4 sequence: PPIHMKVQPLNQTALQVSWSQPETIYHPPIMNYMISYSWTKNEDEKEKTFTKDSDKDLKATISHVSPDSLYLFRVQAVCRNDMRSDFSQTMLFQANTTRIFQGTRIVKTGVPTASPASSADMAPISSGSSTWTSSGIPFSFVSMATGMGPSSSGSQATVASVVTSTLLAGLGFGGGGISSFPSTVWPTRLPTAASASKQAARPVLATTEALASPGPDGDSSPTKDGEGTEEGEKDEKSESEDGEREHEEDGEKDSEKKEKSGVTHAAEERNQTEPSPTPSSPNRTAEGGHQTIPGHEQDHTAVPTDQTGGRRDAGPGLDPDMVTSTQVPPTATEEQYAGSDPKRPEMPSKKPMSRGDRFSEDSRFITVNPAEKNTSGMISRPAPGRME

T5: mouse PTPRG ECD (amino acid residues 20-733 of mouse PTPRG) fused to hFc (mouse, UniProt Q05909 20-733)
T5 construct: Produced in-house; also called mPTPRG-ECD; Mouse PTPRG-ECD-hFc; not shown: human Fc (hFc)
T5 sequence: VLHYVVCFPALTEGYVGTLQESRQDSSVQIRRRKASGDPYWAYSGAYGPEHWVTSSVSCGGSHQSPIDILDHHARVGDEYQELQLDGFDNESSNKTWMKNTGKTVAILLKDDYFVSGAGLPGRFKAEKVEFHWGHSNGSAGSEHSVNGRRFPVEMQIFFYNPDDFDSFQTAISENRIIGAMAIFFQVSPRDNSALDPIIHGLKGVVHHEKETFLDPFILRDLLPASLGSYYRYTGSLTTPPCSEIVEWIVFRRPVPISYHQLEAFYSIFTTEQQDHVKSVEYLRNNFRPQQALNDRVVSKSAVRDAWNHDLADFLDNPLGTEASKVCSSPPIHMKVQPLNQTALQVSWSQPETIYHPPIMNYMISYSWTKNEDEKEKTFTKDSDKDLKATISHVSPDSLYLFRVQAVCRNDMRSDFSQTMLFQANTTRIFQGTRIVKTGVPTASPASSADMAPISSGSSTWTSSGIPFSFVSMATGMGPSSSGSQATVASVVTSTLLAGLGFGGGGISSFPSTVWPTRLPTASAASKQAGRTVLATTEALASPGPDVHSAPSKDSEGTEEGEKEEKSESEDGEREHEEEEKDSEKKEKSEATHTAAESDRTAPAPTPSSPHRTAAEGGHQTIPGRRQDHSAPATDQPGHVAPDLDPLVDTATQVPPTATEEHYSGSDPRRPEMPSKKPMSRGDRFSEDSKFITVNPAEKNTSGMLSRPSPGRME

T6: human PTPRG extracellular domain (ECD) (residues 20~736 of human PTPRG) fused to hFc (human, UniProt P23470 20-736)
T6 construct: Produced in-house by transient transfection of Expi293 cells; also called hPTPRG-ECD-hFc; hPTPRG-ECD; not shown: human Fc (hFc)
T6 sequence: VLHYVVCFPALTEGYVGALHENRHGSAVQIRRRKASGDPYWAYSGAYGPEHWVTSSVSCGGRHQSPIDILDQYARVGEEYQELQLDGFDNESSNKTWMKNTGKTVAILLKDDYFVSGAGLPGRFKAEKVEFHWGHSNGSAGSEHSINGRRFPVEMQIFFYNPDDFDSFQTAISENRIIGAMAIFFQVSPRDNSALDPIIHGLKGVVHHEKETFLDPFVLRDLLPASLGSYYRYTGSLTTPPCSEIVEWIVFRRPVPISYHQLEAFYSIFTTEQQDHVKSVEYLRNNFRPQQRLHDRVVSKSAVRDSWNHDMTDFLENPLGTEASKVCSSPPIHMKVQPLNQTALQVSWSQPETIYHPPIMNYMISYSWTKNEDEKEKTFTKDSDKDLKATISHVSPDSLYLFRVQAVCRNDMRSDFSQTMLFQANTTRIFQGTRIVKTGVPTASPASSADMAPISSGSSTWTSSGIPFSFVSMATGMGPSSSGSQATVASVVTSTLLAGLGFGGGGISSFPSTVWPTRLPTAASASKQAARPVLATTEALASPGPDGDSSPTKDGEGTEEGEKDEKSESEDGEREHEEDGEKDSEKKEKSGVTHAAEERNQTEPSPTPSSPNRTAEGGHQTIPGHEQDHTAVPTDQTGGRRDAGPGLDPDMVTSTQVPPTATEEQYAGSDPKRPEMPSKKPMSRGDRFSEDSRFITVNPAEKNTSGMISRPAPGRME


Experiments:
[1] = molecular target: T1, human Nectin-2 extracellular domain …; assay: SPR, summary table; antigen column hNectin2 ECD
[2] = molecular target: T2, human Nectin-2 on the cell surface …; assay: flow cytometry on whole U937 cells, screen of the 28 clones (Ctrl row = 0); Nectin-2 is named as the antigen on U937 cells only in the later examples
[3] = molecular target: T1, human Nectin-2 extracellular domain …; assay: SPR, Fab on human Nectin-2-ECD-hFc, five concentrations
[4] = molecular target: T1, human Nectin-2 extracellular domain …; assay: ELISA, absorbance at 405 nm, one condition per Fab and antigen
[5] = molecular target: T3, human CD105-ECD: amino acid residues …; assay: as above
[6] = molecular target: T7, human PTPRG on the cell surface (U937 cells, HEL cells) (human, UniProt P23470 20-1445); assay: flow cytometry on whole HEL cells, screen of the 28 clones (Ctrl row = 0); PTPRG is named as the antigen on HEL cells only in the later examples
T7 construct: Endogenous PTPRG of human AML cell lines

[7] = molecular target: T7, human PTPRG on the cell surface (U937 …); assay: flow cytometry on whole U937 cells, screen of the 28 clones (Ctrl row = 0); PTPRG is named as the antigen on U937 cells only in the later examples
[8] = molecular target: T4, C-terminal domain (CTD) of human PTPRG …; assay: ELISA, one condition per Fab and antigen; y axis 0 to 1.8 without name or unit
[9] = molecular target: T5, mouse PTPRG ECD (amino acid residues …); assay: as above
[10] = molecular target: T6, human PTPRG extracellular domain (ECD) …; assay: ELISA, absorbance at 405 nm, one condition per Fab and antigen

T7 sequence (P23470 20-1445): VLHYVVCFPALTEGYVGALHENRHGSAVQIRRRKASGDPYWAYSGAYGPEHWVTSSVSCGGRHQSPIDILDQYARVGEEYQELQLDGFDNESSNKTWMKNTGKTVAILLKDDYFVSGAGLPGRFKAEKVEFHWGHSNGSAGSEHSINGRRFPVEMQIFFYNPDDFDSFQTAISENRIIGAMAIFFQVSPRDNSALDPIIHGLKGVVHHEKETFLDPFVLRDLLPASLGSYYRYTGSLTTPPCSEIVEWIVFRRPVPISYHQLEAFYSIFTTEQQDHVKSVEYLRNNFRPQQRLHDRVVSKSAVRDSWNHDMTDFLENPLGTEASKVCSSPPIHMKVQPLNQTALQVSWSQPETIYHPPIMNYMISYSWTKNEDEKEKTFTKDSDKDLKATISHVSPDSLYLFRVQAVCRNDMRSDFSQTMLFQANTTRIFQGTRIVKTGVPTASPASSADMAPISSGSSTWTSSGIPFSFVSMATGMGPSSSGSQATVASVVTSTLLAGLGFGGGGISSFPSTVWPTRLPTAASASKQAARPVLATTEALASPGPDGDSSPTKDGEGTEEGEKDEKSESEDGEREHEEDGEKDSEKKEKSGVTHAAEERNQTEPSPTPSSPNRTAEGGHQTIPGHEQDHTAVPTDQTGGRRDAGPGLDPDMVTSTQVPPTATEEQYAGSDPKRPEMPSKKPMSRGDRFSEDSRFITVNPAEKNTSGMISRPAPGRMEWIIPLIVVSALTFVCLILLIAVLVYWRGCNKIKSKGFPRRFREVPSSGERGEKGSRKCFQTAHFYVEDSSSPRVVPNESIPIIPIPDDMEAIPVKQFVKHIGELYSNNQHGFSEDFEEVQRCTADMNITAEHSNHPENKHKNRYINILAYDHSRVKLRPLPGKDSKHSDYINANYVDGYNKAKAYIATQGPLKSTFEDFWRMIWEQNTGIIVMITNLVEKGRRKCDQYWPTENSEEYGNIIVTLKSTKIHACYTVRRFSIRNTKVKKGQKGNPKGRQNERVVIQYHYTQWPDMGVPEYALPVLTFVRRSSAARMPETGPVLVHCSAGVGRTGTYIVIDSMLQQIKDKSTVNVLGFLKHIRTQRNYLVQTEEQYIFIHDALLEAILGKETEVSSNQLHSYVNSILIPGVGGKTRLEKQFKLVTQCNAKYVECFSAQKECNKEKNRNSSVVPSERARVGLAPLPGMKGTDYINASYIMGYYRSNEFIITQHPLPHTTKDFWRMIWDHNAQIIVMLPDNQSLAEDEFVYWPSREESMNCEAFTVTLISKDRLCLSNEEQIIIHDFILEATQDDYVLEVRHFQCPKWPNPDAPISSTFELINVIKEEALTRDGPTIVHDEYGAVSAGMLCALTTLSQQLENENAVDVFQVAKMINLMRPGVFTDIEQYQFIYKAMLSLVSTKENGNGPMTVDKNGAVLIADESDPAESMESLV

Row | Binder | flow cytometry binding value (the table prints no name or unit) [2] | binding result [5] | binding result [10] | also measured
1 | Fab_350 (Fab, V domains shown, Chimeric rabbit/human Fab; also called N350; clone 350) VH: QEQLEESGGRLVTPGTPLTLTCTASGFSLSSYHMSWVRQAPGKGLEWIGLINTGDSAYYASWAKGRFTISRTSTTVDLRITSPTTEDTATYFCARTFGDGFNLWGPGTLVTISS VL: SFVLTQPASVQVDLGQTVSLTCTADTLSRSYASWYQQKPGQAPVLLIYRDTSRPSGVPDRFSGSSSGNTATLTISGAQAGDEADYYCATEDSGDSSYQYVFGGGTQLTVTG | 89.3 | – | – | Kd [1]: 67.5 nM; koff [1]: 0.0077 s⁻¹; kon [1]: 114000 M⁻¹ s⁻¹; Kd [3]: 67.5 nM
2 | Fab_1955 (Fab, V domains shown, Chimeric rabbit/human Fab; also called P1955; clone 1955) VH: AQSLEESGGRLVTPGTPLTLTCTASGFSLYSYDMSWVRQAPGKGLEWIGLIDGGGNTYYASWAKGRFTISKTSSTTVDLKMTSLTTEDTATYFCARELWPAYSSGAFNIWGPGTLVTISS VL: SFVLTQPASVQVNLGQTVSLTCTADTLSRRYASWYQQKPGQAPVLLIYRDTRRPSGVPDRFSGSSSGNTATLTISGAQAGDEADYYCVTTDGSGSSYLVVFGGGTQLTVTG | – | no binding | – | binding result [4]: no binding; flow cytometry binding value (the table prints no name or unit) [6]: 12.9; flow cytometry binding value (the table prints no name or unit) [7]: 91.3; binding result [8]: no binding; binding result [9]: binds
3 | Fab_2282 (Fab, V domains shown, Chimeric rabbit/human Fab; also called N2282; mAb_2282) VH: QEQLKESGGRLVTPGTPLTLTCTASGFTISSYHMSWVRQAPGKGLEWIGVISASGGSTYYASWAKGRFTISKTSTTVDLKITSPTTEDTATYFCARESYGGYNLWGPGTLVTVSS VL: SFVLTQPASVQVNLGQMVSLTCTADTLSRSYASWYQQKPGQAPVLLIYRDTSRPSGVPDRFSGSTSGNTATLTISGAQAGDEADYYCATDDNSGSSYQYVFGGGTQLTVTG | 92.2 | no binding | no binding | –
4 | Fab_2430 (Fab, V domains shown, Chimeric rabbit/human Fab; also called N2430) VH: AQSLEESGGRLVTPGTPLTLTCTVSGIDLSSYHMNWVRQAPGKGLEWIGIIGASAGTYYARWAKGRFTISKTSTTVDLKITSPTTEDTATYFCARSGGSMQLNLWGPGTLVTISS VL: SFVLTQPASVQVNLGQTVSLTCTADTLSRSYASWYQQKPGQAPVLLIYRDTSRPSGVPDRFSGSSSGNTATLTISGAQAGDEADYYCATDDSSGSSYQYVFGGGTQLTVTG | 92.6 | no binding | no binding | –
5 | Fab_277 (Fab, V domains shown, Chimeric rabbit/human Fab; also called N277) VH: AQSLEESGGRLVTPGTPLTLTCTASGFTLSSYHMSWVRQAPGKGLEWIGIISSGGSIYYASWAKGRFTISRTSTTVDLKMTSPTTEDTATYFCARYAAYSIGMDLWGPGTLVTVSS VL: QFVLTQPASVQVNLGQMVSLTCTADTLSRSYASWYQQKPGQAPVLLIYRDTSRPSGVPDRFSGSTSGNTATLTISGAQAGDEADYYCATDDNSGSSYQYVFGGGTQLTVTG | 87.8 | no binding | no binding | –

Reference: patent US20260265410A1 (UNIVERSITY OF FLORIDA RESEARCH FOUNDATION, published 2026)
